The data set in a line: soluble on expression in E. coli; label from the status in PepcDB or PDB records.
Turning to “SLPWTVRTETCRMPFRIDPKKPFGDEIRRAGLELIDDAVTILRDQPSGSHEAVHDARKRFKRLRALYRLIRKVAPDFAREENTRFRDIARSLAFARDATALVETAEYLEAFAASDTQGEALRSVTVMLRERRDDALDHEAGLDEAIAAAIAGCEKGRERLEDLSLPDDLNKTARLVRTGWAKQRVKARKALSCCREQADVEHFHELRKAGQTYWMHLGLMRRLWPSAMRAKRADTKRLVDILGHEHDLSVLTAVADREPDRFGNGERLALLLAAIIERQQALRAEGLVLADEVFSESARTESRIVGLLWRQAAK”, the “soluble on expression in E. coli” value is “not soluble”.

Turning to “SLQCLRFAGAATHPAQAPCMPGPACEPVETFLKTCQAPGSEPTGAASLRAKYLPPSTASIRVSAGLLRAALEDSHSGFHLCSATLRWLLAENAAVDVVRAQTLSSIQGIAPDGTDVNLTVHEVAVTDLSPAGPIQAVEIQVESSSLANMCRAHHAIIRRIQTMVTEQAALGSSPPDLRMQYLQQIHANHQELLREVQALRDQLCTEDELSSCSTAQKLLHIYKQLRNPSLVLL”, the “soluble on expression in E. coli” value was “not soluble”.

With “SLQPEAPKPPQIGMANPASVYCQQKGGTLIPVQTAQGVSNNCKLPGGETIDEWALWRLDHPAGEK”, the “soluble on expression in E. coli” value is reported as “soluble”. Turning to “SLQVNTPQTEETANQAKRHVADYTMDGISATALDERGVTKYRFTGVHMNHYEDDLTYDVTFPALRIYAPDRPQVTARADLGKMNGEGSIIDLYDNAKVVRAQGPDLRQDPLMTADSTYFQVLLNDDVVRTDKPVELHRGPSVMNANGLVFNNVTRQVQLLGNVRGRIEGLGAPKQ”, the “soluble on expression in E. coli” value is listed as “soluble”.

For “SLSKEKISVQENKKMATIRDISLKCGVSVSTVSKVLNGYREIGEETSKAVMKAAEELGYVPNSYARQLKLKKSYNIGVLFDTLSVYGLKNEYFAHILAALRENASQGGYDITFIENNIGNRRMTYLEHCKYRNFDGICIVCADFTNPEVLDVVNSDFPVVTIDHSFNEAISILSDNSGGMRDLAQYIVSMGHKKIAYIHGNKSSVTHNRLVAFHQVLAEHDIVIPEYYMKEGEYRLAESAEEFTYELLNLSDRPTCILASDDYAALGVIKAIKRAGLRFPEDISVAGFDGISISQALEPKLTTVKQDTEKLGEQAAKKLICLMESPMTTPLEHIVLKAELIIGDSVKKLREG”, the “soluble on expression in E. coli” value was “soluble”.

On to “SLTGKKAEEEYLYQLEQLNQLFTKTEALEESKIFYKNIKFERGLFASHIQDQIEIHKANETIIIPLSSTLYHGPLPLDRVAKLNFVPAIFSSQTLLGKNATTQAFFDITESEKPLQLNFAMNYSLSGNAELKLASGQYHNEQSKTDFDWSNVVLNIDLNQNTPNNYVLSVDTFNSNAPNHAVSTASSIKIKDLVVQGSLQSTKWPFIYSGNINSKIGYFEQNTESAESGEKFSLIQKNSQANLTTQVEGDTVNIINKTNLDELHINGNNLGKVTNNVEFNHIDGNALQELLNILVAIGKADSECLYLKHWCKNYNKQAWPLRIISLKLSLPLFLFLMKKAKWHWI”, for which the “soluble on expression in E. coli” value is on record as “not soluble”. Take “SLTKKVTIGSYIKFSDSCKRDGLANYSEQGRFWDVHRSQADDVQKIYNQELEFQRLAQRIGNCSGILRFSQIDDDETGKKKLKLRLQEAHFCRVRHCPVCQWRRSLMWQARFYSALPAIIKEYPKARFLFLTLTVKNCHIEDLSDTLRIMNSGWQRLKDRKEFKSVLGWIRSTEVTKGKDGSAHPHFHILLMVPPSWFTHSYVKKSRWAELWAYCARLDYSPVVDIRTVKNCVPEASSGLTEGLKAAVAETLKYSVKPSDMIEGNNWFLQMTKQVHRKRFIASGGVLKNILRESQETNEDLIFADNLNEISDRSRIAFNWRQSEKCYRRFEQGD”: the “soluble on expression in E. coli” value is listed as “soluble”. Turning to “SLTVFQPLVPPDWKMNLRDGELYAQVAFSAAPEQGFRAGGHGVLKGGSAWMPDNQVNGVDFVLPFRFADGAWHLGTRGPVTLRIAEVINLVTAKNITADLQGRYPWTEEEPLLLTDVSVDVLGGNVLMKQLRMPQHDPALLRLNNLSSSELVSAVNPKQFAMSGAFSGALPLWLNNEKWIVKDGWLANSGPMTLRLDKDTADAVVKDNMTAGSAINWLRYMEISRSSTKINLDNLGLLTMQANITGTSRVDGKSGTVNLNYHHEENIFTLWRSLRFGDNLQAWLEQ”, the “soluble on expression in E. coli” value is given as “not soluble”. Turning to “SLVPQGGPVLCRDEMEEWSASEAMLFEEALEKYGKDFNDIRQDFLPWKSLASIVQFYYMWKTTDRYIQQKRLKAAEAEG”, the “soluble on expression in E. coli” value was “soluble”.

For “SLVQHFDTLLVNIGQLLPMESKGPKRGKEMSELQLLEHAALGIRDGKVAFIGTMVEADTFTANQMIDCQGKLVTPGLVDPHTHLIFGGSREHEMALKQQGVPYLEILKNGGGILATVEATRAASEEELITKAICHLNRMLSYGVTTIEAKSGYGLDRETEWKQLRAAKAVGEQHPIDIVSTFLGAHAIPTSHRNDPDRFLDEMADMLGEIKEQNLAEFVDIFTETGVFTVEQSRTFLQKAKERGFGLKLHADEIDPLGGAELAGELGAISADHLVGASDQGIQKMAAAGTIACLLPGTTFYLGKDTYARARDMIDQGLAVTISTDFNPGSSPTENLQLIMSIAALRLKMTPEEIWHAVTVNGAHAIGRGDTAGQLAVGRAADVVVWDAKNYYYVPYHYGVNHVHSVWKKGEVVYERRRAFEGLSISR”, the “soluble on expression in E. coli” value was “soluble”.

With “SMHFVQQKVKVFRAADPLVGVFLWGVAHSINELSQVPPPVMLLPDDFKASSKIKVNNHLFHRENLPSHFKFKEYCPQVFRNLRDRFGIDDQDYLVSLTRNPPSESEGSDGRFLISYDRTLVIKEVSSEDIADMHSNLSNYHQYIVKCHGNTLLPQFLGMYRVSVDNEDSYMLVMRNMFSHRLPVHRKYDLKGSLVSREASDKEKVKELPTLRDMDFLNKNQKVYIGEEEKKIFLEKLKRDVEFLVQLKIMDYSLLLGIHDIIRGSEPEEEAPVREDESEVDGDCSLTGPPALVGSYGTSPEGIGGYIHSHRPLGPGEFESFIDVYAIRSAEGAPQKEVYFMGLIDILTQYDAKKKAAHAAKTVKHGAGAEISTVHPEQYAKRFLDFITNIFA”, the “soluble on expression in E. coli” value is listed as “soluble”. In the case of “SMLGPEGGEGFVVKLRGLPWSCSVEDVQNFLSDCTIHDGAAGVHFIYTREGRQSGEAFVELGSEDDVKMALKKDRESMGHRYIEVFKSHRTEMDWVLKHSGPNSADSANDGFVRLRGLPFGCTKEEIVQFFSGLEIVPNGITLPVDPEGKITGEAFVQFASQELAEKALGKHKERIGHRYIEVFKSSQEEVRSYSDPPLKFMSVQRPGPYDRPGTARRYIGIVKQAGLERMRPGAYSTGYGGYEEYSGLSDGYGFTTDLFGRDLSYCLSGMYDHRYGDSEFTVQSTTGHCVHMRGLPYKATENDIYNFFSPLNPVRVHIEIGPDGRVTGEADVEFATHEEAVAAMSKDRANMQHRYIELFLNSTTGASNGAYSSQVMQGMGVSAAQATYSGLESQSVSGCYGAGYSGQNSMGGYD”, the “soluble on expression in E. coli” value is “soluble”. Then “SMLSAASRVVSRAAVHCALRSPPPEARALAMSRPPPPRVASVLGTMEMGRRMDAPASAAAVRAFLERGHTELDTAFMYSDGQSETILGGLGLGLGGGDCRVKIATKANPWDGKSLKPDSVRSQLETSLKRLQCPQVDLFYLHAPDHGTPVEETLHACQRLHQEGKFVELGLSNYASWEVAEICTLCKSNGWILPTVYQGMYNATTRQVETELFPCLRHFGLRFYAYNPLAGGLLTGKYKYEDKDGKQPVGRFFGNSWAETYRNRFWKEHHFEAIALVEKALQAAYGASAPSVTSAALRWMYHHSQLQGAHGDAVILGMSSLEQLEQNLAATEEGPLEPAVVDAFNQAWHLVAHECPNYFR”, with “soluble”; and “SMSNDKTGKSLEQENSERDVEIRDRNYFRKLSLFDDTVIAGAEMIGTSYDVFGKYCNVGSCMNSLFDERKINASEDNFKKVTILGKTLKVPYYIDCYSVGDLKYTNASGESIESYQSNISSKSRIKGNYLFFSASLKVDFDTDSLTDFENAFSRIQYTYDLYILKSSAEALKEFLKESVKTALDKADTEEDMNDLFNTWGSHFLSGVVMGGCAQYSSSTNKYTSNLTNSFDVVAAASFAGFIGLSARTGNSFMEDIKKFRSASNIKTHAIGGDLSRFDPFGGATSADQPSAEEIAAAKKAFEDWKASVPNAPELVNFADSNPLTGIWELCSDRTQKAKLKKHFETVWAPAESAKRRVHADYIDEIIIGINNTNTPPEGYIGLKSTKDENLNSKGNICLFMHKAKYDPNIDNKDCITELKFITVRDKSPEGDWVKIPQDIYISPNQYLYLCYLPAKYSAEKAIKDIQLLCSSCGSSMILPYGYNDVLDERGERANATEDDNVHYLIYSAGWK”, with “soluble”. To “SMTEEQPVASWALSFERLLQDPLGLAYFTEFLKKEFSAENVTFWKACERFQQIPASDTQQLAQEARNIYQEFLSSQALSPVNIDRQAWLGEEVLAEPRPDMFRAQQLQIFNLMKFDSYARFVKSPLYRECLLAEAEGRPLREPGSSRLGSPDAT” belongs “soluble”; to “SNAIIAGETSIPSQGENMPAYHARPKNADGPLPIVIVVQEIFGVHEHIRDLCRRLAQEGYLAIAPELYFRQGDPNEYHDIPTLFKELVSKVPDAQVLADLDHVASWAARHGGDAHRLLITGFCWGGRITWLYAAHNPQLKAAVAWYGKLVGEKSLNSPKHPVDIAVDLNAPVLGLYGAKDASIPQDTVETMRQALRAANATAEIVVYPEADHAFNADYRASYHEESAKDGWQRMLAWFAQY”, “soluble”. Then “SNAMADGIYGSFENLKKHAGTMTLEAYMRFSAKLSEAKDEMGTKEYEVFTKELKKLTNAKLAYGDANGNIDYDALSPEKREEMKTVSMGLQPYFDKLNGHKSSKEVLTQEEFDRYMEALMTHEIVRVKTKSTGAIKVEEVPEAYKERFMKAEQFMEYVDEKVR”, with “soluble”; and “SNAMADLLLGVNIDHIATLRNARGTIYPDPVQAAFIAEQAGADGITVHLREDRRHITDRDVRILRQTIQTRMNLEMAVTDEMVDIACDIKPHFCCLVPEKRQEVTTEGGLDVAGQVDKMTLAVGRLADVGILVSLFIDADFRQIDAAVAAGAPYIEIHTGAYADASTVLERQAELMRIAKAATYAAGKGLKVNAGHGLTYHNVQPIAALPEMHELNIGHAIIGQAVMTGLAAAVTDMKVLMREARR”, with “soluble”; and “SNAMAKITVGTENQAPIEIYYEDHGTGKPVVLIHGWPLSGRSWEYQVPALVEAGYRVITYDRRGFGKSSQPWEGYEYDTFTSDLHQLLEQLELQNVTLVGFSMGGGEVARYISTYGTDRIEKVVFAGAVPPYLYKSEDHPEGALDDATIETFKSGVINDRLAFLDEFTKGFFAAGDRTDLVSESFRLYNWDIAAGASPKGTLDCITAFSKTDFRKDLEKFNIPTLIIHGDSDATVPFEYSGKLTHEAIPNSKVALIKGGPHGLNATHAKEFNEALLLFLKD”, with “soluble”. In the case of “SNAMEVMLMSKYATLKYADKNIEIELPVYSPSLGNDCIDVSSLVKHGIFTYDPGFMSTAACESKITYIDGGKGVLLHRGYPIEEWTQKSNYRTLCYALIYGELPTDEQVKSFRQEIINKMPVCEHVKAAIAAMPQHTHPMSSLIAGVNVLAAEHIHNGQKESQDEVAKNIVAKIATIAAMAYRHNHGKKFLEPKMEYGYAENFLYMMFADDESYKPDELHIKAMDTIFMLHADHEQNASTSTVRLSGSTGNSPYAAIIAGITALWGPAHGGANEAVLKMLSEIGSTENIDKYIAKAKDKDDPFRLMGFGHRVYKNTDPRATAMKKNCEEILAKLGHSDNPLLTVAKKLEEIALQDEFFIERKLFSNVDFYSGIILKAMGIPEDMFTAIFALARTSGWISQWIEMVNDPAQKIGRPRQLYTGATNRNF”, the “soluble on expression in E. coli” value is listed as “soluble”. As to “SNAMLSANQIKFLRSLRERKYRLREQAFAVEGPKLVGEMLPFYRCRMLVGTAAMLRAVSTPHDAEVVELPESFDFKRISTQTTPQPLMAVFDLPAEPEPVVEGLTLLLDGVQDPGNVGTILRTADWFGIRHVWLGTGSADVFSPKVVQASMGALARVQPTPLKNTVDTLAYFRRQGIPVYGAFLDGQSLYEAPLPNFTEPAILVLGSEGRGISPEVAAEITDRLTIPASGLSVKGHTESLNVAIATAILCSEWRRRS”, the “soluble on expression in E. coli” value is given as “soluble”.

(Values after the DeepSol protein solubility set.)
